Data on five molecules can be found in paper PMC13429012 (Structure (London, England : 1993), 2016).

One test addresses Rvb2(E166K) (Saccharomyces cerevisiae, UniProt Q12464 1-471, E166K). The test can be described thus: SEC. On the technique in general: In gel filtration, larger molecules generally elute earlier.
The target of another test is Rvb2 (Saccharomyces cerevisiae, UniProt Q12464 1-471). The test can be described thus: SEC.
Sequence of Rvb2 (Q12464 whole entry): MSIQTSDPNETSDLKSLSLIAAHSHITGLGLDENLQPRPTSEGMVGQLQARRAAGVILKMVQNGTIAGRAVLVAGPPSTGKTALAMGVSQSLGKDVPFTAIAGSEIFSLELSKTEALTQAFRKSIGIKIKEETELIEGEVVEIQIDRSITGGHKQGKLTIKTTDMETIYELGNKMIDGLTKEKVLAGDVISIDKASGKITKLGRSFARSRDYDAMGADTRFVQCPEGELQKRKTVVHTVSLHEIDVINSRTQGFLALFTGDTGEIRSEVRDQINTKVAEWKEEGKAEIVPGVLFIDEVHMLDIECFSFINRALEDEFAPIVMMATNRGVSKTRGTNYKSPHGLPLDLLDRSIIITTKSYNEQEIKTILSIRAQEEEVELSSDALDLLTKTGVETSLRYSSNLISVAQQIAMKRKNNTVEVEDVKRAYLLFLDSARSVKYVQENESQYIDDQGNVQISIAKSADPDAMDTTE

Sequence of Rvb2(E166K) (Q12464 whole entry E166K): as the sequence (Q12464 whole entry) above, with E166K counted along it

B1: Rvb1 (natural protein, Saccharomyces cerevisiae, UniProt Q03940 1-463, looked up)
chain: MVAISEVKENPGVNSSNSGAVTRTAAHTHIKGLGLDESGVAKRVEGGFVGQIEAREACGVIVDLIKAKKMSGRAILLAGGPSTGKTALALAISQELGPKVPFCPLVGSELYSVEVKKTETLMENFRRAIGLRIKETKEVYEGEVTELTPEDAENPLGGYGKTISHVIVGLKSAKGTKTLRLDPTIYESIQREKVSIGDVIYIEANTGAVKRVGRSDAYATEFDLETEEYVPLPKGEVHKKKEIVQDVTLHDLDVANARPQGGQDVISMMGQLLKPKKTEITEKLRQEVNKVVAKYIDQGVAELIPGVLFIDEVNMLDIEIFTYLNKALESNIAPVVVLASNRGMTTVRGTEDVISPHGVPPDLIDRLLIVRTLPYDKDEIRTIIERRATVERLQVESSALDLLATMGTETSLRYALQLLAPCGILAQTSNRKEIVVNDVNEAKLLFLDAKRSTKILETSANYL
B1: in the test with Rvb2(E166K), the binding result is on record as “binds”.

B2: Rvb1(K161E) (natural protein, Saccharomyces cerevisiae, UniProt Q03940 1-463, looked up)
chain: MVAISEVKENPGVNSSNSGAVTRTAAHTHIKGLGLDESGVAKRVEGGFVGQIEAREACGVIVDLIKAKKMSGRAILLAGGPSTGKTALALAISQELGPKVPFCPLVGSELYSVEVKKTETLMENFRRAIGLRIKETKEVYEGEVTELTPEDAENPLGGYGETISHVIVGLKSAKGTKTLRLDPTIYESIQREKVSIGDVIYIEANTGAVKRVGRSDAYATEFDLETEEYVPLPKGEVHKKKEIVQDVTLHDLDVANARPQGGQDVISMMGQLLKPKKTEITEKLRQEVNKVVAKYIDQGVAELIPGVLFIDEVNMLDIEIFTYLNKALESNIAPVVVLASNRGMTTVRGTEDVISPHGVPPDLIDRLLIVRTLPYDKDEIRTIIERRATVERLQVESSALDLLATMGTETSLRYALQLLAPCGILAQTSNRKEIVVNDVNEAKLLFLDAKRSTKILETSANYL
Take B2: the binding result with Rvb2 is listed as “binds”.

B3: Rvb1(E146R) (natural protein, Saccharomyces cerevisiae, UniProt Q03940 1-463, looked up)
chain: MVAISEVKENPGVNSSNSGAVTRTAAHTHIKGLGLDESGVAKRVEGGFVGQIEAREACGVIVDLIKAKKMSGRAILLAGGPSTGKTALALAISQELGPKVPFCPLVGSELYSVEVKKTETLMENFRRAIGLRIKETKEVYEGEVTRLTPEDAENPLGGYGKTISHVIVGLKSAKGTKTLRLDPTIYESIQREKVSIGDVIYIEANTGAVKRVGRSDAYATEFDLETEEYVPLPKGEVHKKKEIVQDVTLHDLDVANARPQGGQDVISMMGQLLKPKKTEITEKLRQEVNKVVAKYIDQGVAELIPGVLFIDEVNMLDIEIFTYLNKALESNIAPVVVLASNRGMTTVRGTEDVISPHGVPPDLIDRLLIVRTLPYDKDEIRTIIERRATVERLQVESSALDLLATMGTETSLRYALQLLAPCGILAQTSNRKEIVVNDVNEAKLLFLDAKRSTKILETSANYL
With B3, the binding result with Rvb2 is recorded as “binds”.

B4: Rvb1(E150K) (natural protein, Saccharomyces cerevisiae, UniProt Q03940 1-463, looked up)
chain: MVAISEVKENPGVNSSNSGAVTRTAAHTHIKGLGLDESGVAKRVEGGFVGQIEAREACGVIVDLIKAKKMSGRAILLAGGPSTGKTALALAISQELGPKVPFCPLVGSELYSVEVKKTETLMENFRRAIGLRIKETKEVYEGEVTELTPKDAENPLGGYGKTISHVIVGLKSAKGTKTLRLDPTIYESIQREKVSIGDVIYIEANTGAVKRVGRSDAYATEFDLETEEYVPLPKGEVHKKKEIVQDVTLHDLDVANARPQGGQDVISMMGQLLKPKKTEITEKLRQEVNKVVAKYIDQGVAELIPGVLFIDEVNMLDIEIFTYLNKALESNIAPVVVLASNRGMTTVRGTEDVISPHGVPPDLIDRLLIVRTLPYDKDEIRTIIERRATVERLQVESSALDLLATMGTETSLRYALQLLAPCGILAQTSNRKEIVVNDVNEAKLLFLDAKRSTKILETSANYL
With B4, the binding result in the test with Rvb2 was “binds”.

B5: Rvb1(R180E) (natural protein, Saccharomyces cerevisiae, UniProt Q03940 1-463, looked up)
chain: MVAISEVKENPGVNSSNSGAVTRTAAHTHIKGLGLDESGVAKRVEGGFVGQIEAREACGVIVDLIKAKKMSGRAILLAGGPSTGKTALALAISQELGPKVPFCPLVGSELYSVEVKKTETLMENFRRAIGLRIKETKEVYEGEVTELTPEDAENPLGGYGKTISHVIVGLKSAKGTKTLELDPTIYESIQREKVSIGDVIYIEANTGAVKRVGRSDAYATEFDLETEEYVPLPKGEVHKKKEIVQDVTLHDLDVANARPQGGQDVISMMGQLLKPKKTEITEKLRQEVNKVVAKYIDQGVAELIPGVLFIDEVNMLDIEIFTYLNKALESNIAPVVVLASNRGMTTVRGTEDVISPHGVPPDLIDRLLIVRTLPYDKDEIRTIIERRATVERLQVESSALDLLATMGTETSLRYALQLLAPCGILAQTSNRKEIVVNDVNEAKLLFLDAKRSTKILETSANYL
Consider B5, for which, in the test with Rvb2, the binding result is on record as “binds”.
